Data taken from article PMC4417206.

Biological target: T1, N-ht-CRP (cAMP receptor protein) (Shewanella oneidensis MR-1) (UniProt Q8EJ49)
T1 sequence: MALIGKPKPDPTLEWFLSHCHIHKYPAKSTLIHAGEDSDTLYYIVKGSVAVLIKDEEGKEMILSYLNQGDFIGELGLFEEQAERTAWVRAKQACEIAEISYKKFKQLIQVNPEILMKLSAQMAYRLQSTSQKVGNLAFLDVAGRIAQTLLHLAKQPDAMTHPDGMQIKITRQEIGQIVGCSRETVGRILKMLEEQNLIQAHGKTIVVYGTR
Experiment: EMSA
Conditions: 10 mM Tris-HCl pH 7.6, 0.5 mM EDTA, 100 mM KCl, 50 ug/mL BSA, 50 ug/mL poly(dI-dC), 50 uM cAMP, 10% glycerol, 2 nM probe, 0-200 ng CRP in 20 uL, on ice 30 min …

Sequence	binding
CCCGCTTAAAGTGACTGATAAATACCAATGACTTAGTTAGCCTTACAGGTGGGATCTAATTCC (double strand) [PBomcA2]	no binding
CCTTGGGGAATTCTATTTCCAGCATCCACTTAAGTCGCTTCTAGTGATCAAATACACAGACATAGAATCTGTTGGCGCTAGAGCATAGCGGTTAAGCAATGCCAAACCTATGCAGGGAAAA (double strand) [PBmtrC2]	no binding
TCCACCTCACTATCTGTTGTTTTTTTGCTCTCAATTTGTTTTTCCCTTGTGGTTTAACTACCTCTTTAGAAATAGAAAGATCCAAGTCACACATTAGCAAAGGCTTAGAAGATTTTAACGGCATGTTGGGTTAGCCTTTCCTTGGGGAATTCTATTTCCAGCATCCACTTAAGTCGCTTCTAGTGATCAAATACACAGACATAGAATCTGTTGGCGCTAGAGCATAGCGGTTAAGCAATGCCAAACCTATGCAGGGAAAA (double strand) [PBmtrC1]	binds more weakly
